# Laboratory results from patent US9115185.
# T1: HLA-DR3 (DRB*0301), purified from B-lymphoblastic cell line HAR (human)
# T1 chain: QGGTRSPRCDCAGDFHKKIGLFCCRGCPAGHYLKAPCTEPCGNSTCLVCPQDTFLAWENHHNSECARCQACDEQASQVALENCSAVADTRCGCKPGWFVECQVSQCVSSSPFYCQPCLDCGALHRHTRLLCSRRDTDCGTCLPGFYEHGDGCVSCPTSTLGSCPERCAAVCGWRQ
# What was measured:
# [1] = molecular target: HLA-DR2 (DRB1*0201 [sic]), purified from B-lymphoblastic cell line IWB (human); test: competition with fluorescent HA 308-319 on purified HLA-DR2
# [2] = molecular target: HLA-DR1 (DRB*0101), purified from B-lymphoblastic cell line LG2.1 (human); test: competition with fluorescent HA 308-319 on purified HLA-DR1
# [3] = molecular target: T1, HLA-DR3 (DRB*0301), purified from …; test: competition with fluorescent hsp65 3-13 on purified HLA-DR3
# [4] = molecular target: HLA-DR7 (DRB1*0701), purified from B-lymphoblastic cell line Pitout (human); test: competition with fluorescent Ii 80-103 on purified HLA-DR7
# [5] = molecular target: HLA-DR4 (DRB*0401), purified from B-lymphoblastic cell line BSM (human); test: competition with fluorescent HA308-319 Y→F on purified HLA-DR4
binder,measurement,setting,value
"DLYCYEQLNDSSEEEDEIDGPA (modifications not checked) [HPV16 E7 peptide 21-42, P03129 21-42]",IC50,[1],12 µM
"STHVDIRTLEDLLMGTLGIVCP (modifications not checked) [HPV16 E7 peptide 71-92, P03129 71-92]",IC50,[1],2 µM
same,IC50,[2],12 µM
"HYNIVTFCCKCDSTLRLCVQST (modifications not checked) [HPV16 E7 peptide 51-72, P03129 51-72]",IC50,[3],50 µM
same,IC50,[4],11 µM
same,IC50,[2],70 µM
"MHGDTPTLHEYMLDLQPETTDL (modifications not checked) [HPV16 E7 peptide 1-22, P03129 1-22]",IC50,[3],0.8 µM
same,IC50,[4],7 µM
same,IC50,[1],10 µM
same,IC50,[5],30 µM
SSTWHWTGHNVKHKSAIVTLTYDSEWQRDQ (modifications not checked) [HPV16 E2 peptide 316-345],IC50,[3],30 µM
AIVTLTYDSEWQRDQFLSQVKIPKTITVSTGFMSI (modifications not checked) [HPV16 E2 peptide 331-365],IC50,[3],10 µM
same,IC50,[5],15 µM
"YMLDLQPETTDLYCYEQLNDSS (modifications not checked) [HPV16 E7 peptide 11-32, P03129 11-32]",IC50,[3],50 µM
"CDSTLRLCVQSTHVDIRTLEDL (modifications not checked) [HPV16 E7 peptide 61-82, P03129 61-82]",IC50,[3],65 µM
same,IC50,[1],15 µM
"RTLEDLLMGTLGIVCPICSQKP (modifications not checked) [HPV16 E7 peptide 77-98, P03129 77-98]",IC50,[4],0.9 µM
same,IC50,[1],22 µM
same,IC50,[2],46 µM
"PAGQAEPDRAHYNIVTFCCKCD (modifications not checked) [HPV16 E7 peptide 41-62, P03129 41-62]",IC50,[3],55 µM
same,IC50,[1],50 µM
same,IC50,[2],7.4 µM
same,IC50,[5],38 µM
LRYRFKKHCTLYTAVSSTWHWTGHNVKHKS (modifications not checked) [HPV16 E2 peptide 301-330],IC50,[5],10 µM
FNSSHKGRINCNSNTTPIVHLKGDANTLKC (modifications not checked) [HPV16 E2 peptide 271-300],IC50,[3],37 µM
